Test results: patent publication US20260250320A1, “LIPIDATED PEPTIDE INHIBITORS OF INTERLEUKIN-23 RECEPTOR” (Janssen Pharmaceutica NV, priority 2023, published 2026)
*1 amine or outer side, *2 acyl side, *3 side chain or, on linkers, in order; H or OH if unused. Bridges are numbered along the chain shown (N, C = ends). Primed or numbered codes have the meaning given here. Where no end group is shown, it is not given here. Side-chain parts run from the residue outwards. [ ]: non-standard residue; d: D form. K(d) = (2R)-2-(4-((5-amino-5-carboxypentyl)amino)-4-oxobutanamido)-3-carboxy-N,N,N-trimethylpropan-1-aminium, C[N+](C)(C)C[C@@H](CC(=O)[*:3])NC(=O)CCC(=O)NCCCC[C@H](N[*:1])C(=O)[*:2]; TMAPF = 5-(4-(2-amino-2-carboxyethyl)phenoxy)-N,N,N-trimethylpentan-1-aminium, C[N+](C)(C)CCCCCOc1ccc(C[C@H](N[*:1])C(=O)[*:2])cc1; PEG2′ = PEG2 spacer unit (not further defined); Trp(7-Me) = Cc1cccc2c(C[C@H](N)C(=O)O)c[nH]c12; γGlu = O=C(O)[C@H](CCC(=O)[*:2])N[*:1]; 2Nal = N[C@@H](Cc1ccc2ccccc2c1)C(=O)O; AEF = NCCOc1ccc(C[C@H](N)C(=O)O)cc1; 3Pal = N[C@@H](Cc1cccnc1)C(=O)O; NMecPEG3a = not defined here; Pen = CC(C)(S)[C@H](N)C(=O)O; PEG12′ = not defined here; PEG2″ = PEG2 spacer unit; PEG4′ = not defined here; Thp = NC1(C(=O)O)CCOCC1; Sar = CNCC(=O)O

B1: SEQ ID NO: 74 (peptide)
peptide: Ac-[dR][Pen]K([PEG2″-PEG2″-γGlu-C18OH])T[Trp(7-Me)]K(Ac)[Pen][AEF][2Nal][Thp]K(NMecPEG3a)N[3Pal][Sar]-NH2
modifications: disulfide 2-7 (inferred); reading uncertain; also: printed as MeCO-r-Pen(3)-K(PEG2PEG2gEC18OH)-T-7MeW-K(Ac)-Pen(3)-AEF-2Nal-THP-K(NMecPEG3a)-N-3Pya-Sar-CONH2
B2: SEQ ID NO: 161 (peptide)
peptide: XNTXXXXXXENXXK
modifications: MeCO-Pen(3)-N-T-7MeW-K(Ac)-Pen(3)-AEF-2Nal-THP-E-N-3Pya-Sar-K(PEG12gEC18OH)-CONH2
B3: SEQ ID NO: 84 (peptide)
peptide: {HOC18-γGlu-PEG2′-PEG2′}-[dR][Pen]NT[Trp(7-Me)]K(NMecPEG3a)[Pen][AEF][2Nal][Thp]EN[3Pal][Sar]-NH2
modifications: disulfide 2-7 (inferred); not fully specified; printed as HOC18gEPEG2PEG2CO-r-Pen(3)-N-T-7MeW-K(NMecPEG3a)-Pen(3)-AEF-2Nal-THP-E-N-3Pya-Sar-CONH2; reading uncertain
B4: SEQ ID NO: 66 (peptide)
peptide: Ac-[dR][Pen]K([PEG2″-PEG2″-γGlu-C18OH])T[Trp(7-Me)]K(Ac)[Pen][AEF][2Nal][Thp]EN[3Pal][Sar]
modifications: disulfide 2-7 (inferred); not fully specified (C-terminus); printed as MeCO-r-Pen(3)-K(PEG2PEG2gEC18OH)-T-7MeW-K(Ac)-Pen(3)-AEF-2Nal-THP-E-N-3Pya-Sar-CONH(PEG3a)
B5: SEQ ID NO: 149 (peptide)
peptide: XNTXXXXXXENXXK
modifications: MeCO-Pen(3)-N-T-7MeW-K(Ac)-Pen(3)-AEF-2Nal-THP-E-N-3Pya-Sar-K(PEG2PEG2gEC18OH)-CON(Me)2
B6: SEQ ID NO: 104 (peptide)
peptide: Ac-[dK]([PEG12′-γGlu-C20OH])[Pen]NT[Trp(7-Me)]K(Ac)[Pen][AEF][2Nal][Thp]K(Ac)N[3Pal]X-NH2
modifications: disulfide 2-7 (inferred); not fully specified (residue 14); printed as MeCO-k(PEG12gEC20OH)-Pen(3)-N-T-7MeW-K(Ac)-Pen(3)-AEF-2Nal-THP-K(Ac)-N-3Pya-Ser-CONH2
B7: SEQ ID NO: 116 (peptide)
peptide: {HOC18-γGlu-PEG12′}-[Pen]NTK(Ac)[Pen][AEF][2Nal][Thp]EN[3Pal][Sar]-NH2
modifications: disulfide 1-5 (inferred); not fully specified; printed as HOC18gEPEG12CO-Pen(3)-N-T-K(Ac)-Pen(3)-AEF-2Nal-THP-E-N-3Pya-Sar-CONH2
B8: SEQ ID NO: 76 (peptide)
peptide: Ac-[dR][Pen]K([PEG2″-PEG2″-γGlu-C18OH])T[Trp(7-Me)]K(NMecPEG3a)[Pen][AEF][2Nal][Thp]EN[3Pal][Sar]-NH2
modifications: disulfide 2-7 (inferred); reading uncertain; also: printed as MeCO-r-Pen(3)-K(PEG2PEG2gEC18OH)-T-7MeW-K(NMecPEG3a)-Pen(3)-AEF-2Nal-THP-E-N-3Pya-Sar-CONH2
B9: SEQ ID NO: 102 (peptide)
peptide: XNTXXXXXXXNXXK
modifications: MeCO-Pen(3)-N-T-7MeW-K(Ac)-Pen(3)-AEF-2Nal-THP-K(Ac)-N-3Pya-Sar-K(PEG12gEC18OH)-CONH2
B10: SEQ ID NO: 103 (peptide)
peptide: XNTXXXXXXENXXK
modifications: MeCO-Pen(3)-N-T-7MeW-K(Ac)-Pen(3)-AEF-2Nal-THP-E-N-3Pya-Sar-K(PEG12gEC20OH)-CONH2
B11: SEQ ID NO: 150 (peptide)
peptide: XNTXXXXXXENXXK
modifications: not fully specified; MeCO-Pen(3)-N-T-7MeW-K(Ac)-Pen(3)-AEF-2Nal-THP-E-N-3Pya-Sar-K(PEG2PEG2gEC18OH)-CONH(PEG3a)
B12: SEQ ID NO: 82 (peptide)
peptide: {HOC18-γGlu-PEG2″-PEG2″}-[dR][Pen]NT[Trp(7-Me)]K(Ac)[Pen][AEF][2Nal][Thp]K(NMecPEG3a)N[3Pal][Sar]-NH2
modifications: disulfide 2-7 (inferred); not fully specified; printed as HOC18gEPEG2PEG2CO-r-Pen(3)-N-T-7MeW-K(Ac)-Pen(3)-AEF-2Nal-THP-K(NMecPEG3a)-N-3Pya-Sar-CONH2; reading uncertain
B13: SEQ ID NO: 101 (peptide)
peptide: XNTXXXXXXXNXXK
modifications: MeCO-Pen(3)-N-T-7MeW-K(Ac)-Pen(3)-AEF-2Nal-THP-K(Ac)-N-3Pya-Sar-K(PEG12gEC20OH)-CONH2
B14: SEQ ID NO: 3 (peptide)
peptide: XNTXXXXXXENXXK
modifications: MeCO-Pen(3)-N-T-7MeW-K(Ac)-Pen(3)-AEF-2Nal-THP-E-N-3Pya-Sar-K(PEG2NMePEG2NMegENMeC18Tetrazole)-CONH2

Key:
[1] = molecular target: T1, interleukin-23 receptor (IL-23R) (UniProt Q5VWK5 24-629, limits assumed); experiment: cell-based or functional assay
T1 sequence (looked up): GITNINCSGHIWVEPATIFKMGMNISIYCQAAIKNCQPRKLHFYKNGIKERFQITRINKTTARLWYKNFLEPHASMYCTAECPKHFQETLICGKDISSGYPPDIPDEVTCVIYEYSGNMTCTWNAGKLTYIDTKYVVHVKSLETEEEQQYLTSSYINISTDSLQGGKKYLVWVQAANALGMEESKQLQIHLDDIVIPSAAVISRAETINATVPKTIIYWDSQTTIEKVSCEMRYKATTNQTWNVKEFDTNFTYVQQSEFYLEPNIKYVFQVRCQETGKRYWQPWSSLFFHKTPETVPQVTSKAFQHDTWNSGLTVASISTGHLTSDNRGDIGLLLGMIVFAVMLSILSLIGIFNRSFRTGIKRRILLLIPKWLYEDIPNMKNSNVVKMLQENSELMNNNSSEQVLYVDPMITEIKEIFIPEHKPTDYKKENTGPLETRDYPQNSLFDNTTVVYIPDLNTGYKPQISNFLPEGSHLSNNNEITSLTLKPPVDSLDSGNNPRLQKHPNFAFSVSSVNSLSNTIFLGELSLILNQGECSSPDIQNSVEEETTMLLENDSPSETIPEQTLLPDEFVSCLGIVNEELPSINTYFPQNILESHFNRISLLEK

[2] = molecular target: T1, interleukin-23 receptor (IL-23R); experiment: cell-based or functional assay; remark: listed apart in the source

| Binder | IC50, IL23R reporter assay [1] | PBMC pSTAT3 IC50 [2] |
| --- | --- | --- |
| B1 | < 50 nM | < 0.5 nM |
| B2 | < 50 nM | < 0.5 nM |
| {HOC18-γGlu-PEG2″-PEG2″}-[dR][Pen]NT[Trp(7-Me)]K(Ac)[Pen][TMAPF][2Nal][Thp]EN[3Pal][Sar]-NH2 (disulfide 2-7 (inferred); not fully specified) [SEQ ID NO: 83] | < 50 nM | < 0.5 nM |
| B3 | < 50 nM | < 0.5 nM |
| XNTXKXXXXENXX (MeCO-Pen(3)-N-T-7MeW-K(PEG12gEC18OH)-Pen(3)-AEF-2Nal-THP-E-N-3Pya-Sar-CONH2) [SEQ ID NO: 96] | < 50 nM | < 0.5 nM |
| B4 | ≥ 500 nM | – |
| B5 | ≥ 500 nM | ≥ 5 nM |
| B6 | < 50 nM | < 0.5 nM |
| Ac-[dR][Pen]K([PEG12′-γGlu-C18OH])T[Trp(7-Me)]K(Ac)[Pen][AEF][2Nal][Thp]EN[3Pal][Sar]-NH2 (disulfide 2-7 (inferred)) [SEQ ID NO: 105] | < 50 nM | < 0.5 nM |
| B7 | < 50 nM | < 0.5 nM |
| B8 | < 50 nM | < 0.5 nM |
| Ac-[dR][Pen]NT[Trp(7-Me)]K(Ac)[Pen][AEF][2Nal][Thp]K([PEG4′-AcCl])N[3Pal][Sar]K([PEG2′-PEG2′-γGlu-C18OH])-NH2 (disulfide 2-7 (inferred)) [SEQ ID NO: 4] | < 50 nM | < 0.5 nM |
| B9 | < 50 nM | < 0.5 nM |
| Ac-[Pen]K([PEG12′-γGlu-C18OH])T[Trp(7-Me)]K(Ac)[Pen][AEF][2Nal][Thp]EN[3Pal][Sar]-NH2 (disulfide 1-6 (inferred)) [SEQ ID NO: 97] | < 50 nM | < 0.5 nM |
| B10 | < 50 nM | < 0.5 nM |
| B11 | ≥ 500 nM | ≥ 5 nM |
| Ac-[dR][Pen]NT[Trp(7-Me)]K(Ac)[Pen][AEF]([PEG2′-PEG2′-γGlu-C18OH])[2Nal][Thp][K(d)]N[3Pal][Sar]-NH2 (disulfide 2-7 (inferred)) [SEQ ID NO: 9] | < 50 nM | < 0.5 nM |
| Ac-[dR][Pen]K([PEG2″-PEG2″-γGlu-C18OH])T[Trp(7-Me)]K(Ac)[Pen][TMAPF][2Nal][Thp]EN[3Pal][Sar]-NH2 (disulfide 2-7 (inferred)) [SEQ ID NO: 75] | < 50 nM | < 0.5 nM |
| B12 | < 50 nM | < 0.5 nM |
| B13 | < 50 nM | < 0.5 nM |
| XNTXXXXXXKNXX (MeCO-Pen(3)-N-T-7MeW-K(Ac)-Pen(3)-AEF-2Nal-THP-K(PEG12gEC18OH)-N-3Pya-Sar-CONH2) [SEQ ID NO: 100] | < 50 nM | < 0.5 nM |
| Ac-[dK]([PEG12′-γGlu-C18OH])[Pen]NT[Trp(7-Me)]K(Ac)[Pen][AEF][2Nal][Thp]EN[3Pal][Sar]-NH2 (disulfide 2-7 (inferred)) [SEQ ID NO: 117] | < 50 nM | < 0.5 nM |
| Ac-[dR][Pen]K([PEG12′-γGlu-C20OH])T[Trp(7-Me)]K(Ac)[Pen][AEF][2Nal][Thp]EN[3Pal][Sar]-NH2 (disulfide 2-7 (inferred)) [SEQ ID NO: 99] | < 50 nM | < 0.5 nM |
| B14 | < 50 nM | < 0.5 nM |
| Ac-[dR][Pen]NT[Trp(7-Me)]K(Ac)[Pen][AEF][2Nal][Thp]EN[3Pal][Sar]K([PEG12′-γGlu-C18OH])-NH2 (disulfide 2-7 (inferred)) [SEQ ID NO: 133] | < 50 nM | < 0.5 nM |
| Ac-[dR][Pen]NT[Trp(7-Me)]K(Ac)[Pen][AEF][2Nal][Thp]EN[3Pal][Sar]K([PEG12′-γGlu-C20OH])-NH2 (disulfide 2-7 (inferred)) [SEQ ID NO: 134] | < 50 nM | < 0.5 nM |
| Ac-[dK]([PEG12′-γGlu-C18OH])[Pen]NT[Trp(7-Me)]K(Ac)[Pen][AEF][2Nal][Thp]K(Ac)N[3Pal][Sar]-NH2 (disulfide 2-7 (inferred)) [SEQ ID NO: 98] | < 50 nM | < 0.5 nM |
